Experiment [1] addresses T1, monkey Trop2 protein (Sino Biological, #90893-C08H) (monkey, UniProt A0A2K5UE71 27-274).
T1 construct: bought protein; also called monkey Trop2 protein antigen (His tag)
T1 sequence: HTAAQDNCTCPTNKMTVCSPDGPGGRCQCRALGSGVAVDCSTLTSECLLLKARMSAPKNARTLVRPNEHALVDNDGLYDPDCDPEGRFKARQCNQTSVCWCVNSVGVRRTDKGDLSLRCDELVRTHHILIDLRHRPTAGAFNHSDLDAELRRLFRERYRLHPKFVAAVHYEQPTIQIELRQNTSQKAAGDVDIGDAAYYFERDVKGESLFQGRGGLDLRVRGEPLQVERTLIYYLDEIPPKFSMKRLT
As to the kind of experiment: BLI, Octet RED96; ratio against KD for human Trop2 protein. As for the experimental part: (§1) Specifically, a human TROP2 protein (Sino Biological, #10428-H08H) or a monkey Trop2 protein (Sino Biological, #90893-C08H) was diluted to 200 nM with a PBS buffer (pH 7.4) containing 0.1% (w/w) BSA and 0.02% (v/v) tween 20, and incubated with the AHC sensor respectively. 40 nM Trop2 antibody was incubated at 30° C. for 3 min with the AHC sensor loaded with the human Trop2 protein or monkey Trop2 protein respectively. The reaction mixture was incubated at 30° C. for another 5 min in a PBS buffer (pH 7.4) containing 0.1% (v/w) BSA and 0.02% (v/v) Tween 20. The association and dissociation signals between the Trop2 antibody and the human Trop2 protein or monkey Trop2 protein were recorded by Octet Red 96 in real time. The affinity and the association and dissociation constants were determined by Octet using software.
A general note: BLI is a label-free optical method that tracks binding on a fibre tip over time.

Experiment [2] concerns the target T2, human TROP2 protein (Sino Biological, #10428-H08H) (human, UniProt P09758 27-274).
T2 construct: bought protein; also called human Trop2 protein antigen (His tag); not shown: His tag
T2 sequence (looked up): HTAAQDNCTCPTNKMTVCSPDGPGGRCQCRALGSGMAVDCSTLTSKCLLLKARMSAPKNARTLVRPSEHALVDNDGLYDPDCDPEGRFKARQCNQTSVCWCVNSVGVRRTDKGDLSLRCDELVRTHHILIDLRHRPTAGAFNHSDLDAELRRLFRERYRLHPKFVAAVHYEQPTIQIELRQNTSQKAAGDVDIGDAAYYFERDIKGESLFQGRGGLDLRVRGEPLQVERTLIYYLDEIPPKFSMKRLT
As to the kind of experiment: BLI, Octet RED96, AHC sensor. As for the experimental part:
as §1

Experiment [3] deals with T1, monkey Trop2 protein (Sino Biological, …). As to the kind of experiment: BLI, Octet RED96, AHC sensor. As for the experimental part:
as §1

A further experiment concerns the target T3, human Trop2 on cells (human, UniProt P09758 27-323).
T3 construct: whole, on cells; also called hTrop2; 293T-human Trop2 cells
T3 sequence (looked up): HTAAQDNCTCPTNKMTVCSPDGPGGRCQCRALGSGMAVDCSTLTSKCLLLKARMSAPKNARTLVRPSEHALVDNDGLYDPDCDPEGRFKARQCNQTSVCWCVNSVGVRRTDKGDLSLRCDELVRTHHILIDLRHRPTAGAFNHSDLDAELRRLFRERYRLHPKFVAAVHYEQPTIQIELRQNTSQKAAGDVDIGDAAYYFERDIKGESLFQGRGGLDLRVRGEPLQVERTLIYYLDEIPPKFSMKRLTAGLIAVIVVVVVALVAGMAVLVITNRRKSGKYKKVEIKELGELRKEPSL
As to the kind of experiment: flow cytometry on 293T-human Trop2 cells. As for the experimental part: The cell density was determined, and the cells were resuspended to 1×10⁶ cells/mL in PBS. 100 μL of cell suspension was taken from each well and added to a 96 well V-bottom plate. The 96-well V-bottom plate was centrifuged at 1000 rpm for 5 min and washed once with PBS+0.5% BSA (VWR, #0332-100G). […] After 1 h, the cells were washed twice with PBS+0.5% BSA. The cells were incubated with 100 μL of Alexa Fluor 488 goat anti-human IgG (Life technologies, 1:1000, #A-11013) at 4° C. for 1 h in the dark, and washed twice with PBS+0.5% BSA. The cells were resuspended in 200 μL of PBS+0.5% BSA. The fluorescence intensity of the cells was analyzed using a FACS verse flow cytometer. All procedures were performed on ice.
A general note: In flow cytometry, cells or beads pass a laser one at a time.

B1: PR001145 (antibody, human IgG1, kappa, V domains shown)
VH: QVQLVESGGGVVQPGRSLRLSCAASGFTFSSFGMQWVRQGPGKGLEWVAIMWFDGSNKYYVDSVKGRFTISRDNSKNTLYLQMNSLRAEDTAVYYCARLDFSGWPLIDYWGQGTLVTVSS
VL: not shown
notes: fully human IgG1/kappa; also called antibody No. (11)
In the case of B1, the “KD (monkey)/KD (human)” value in experiment [1] came to 1.3. Also, in experiment [2], the Kd (in general, the equilibrium constant for the complex coming apart) worked out at 14.7 nM; the Response is 0.29; the koff – broadly, the rate constant with which the complex falls apart – was determined as 0.00135 s⁻¹; the kon (commonly a measure of how fast the partners come together) is 91900 M⁻¹ s⁻¹. In experiment [3], this molecule registered a Kd of 19.1 nM, a Response of 0.277, a koff of 0.00134 s⁻¹ and a kon of 70100 M⁻¹ s⁻¹. Moreover, in the experiment with human Trop2 on cells, a half-maximal effect (EC50) was put at 0.48 nM, the “Maximum (MFI)” value is 7030 MFI and the Top % turned out to be 108%.

B2: PR001134 (antibody, human IgG1, kappa, V domains shown)
VH: QVQLVESGGGVVQPGRSLRVSCIASGFFFSSYGMHWVRQAPGKGLEWVAVIWYDGSNEDYVDSVKGRFTISRDNSKNTLYLQMNSLRGEDTAMYYCARGGYNSGWWAFDIWGQGTMVTVSS
VL: DIQMTQSPSSLSASVGDRVTITCRASQGISHFLAWYQQKPGKVPKLLIYAASTLQSGVPSRFSGSGSGTDFTLTISSLQPEDVATYYCQKFNSAPLTFGGGTKVEIKR
notes: fully human IgG1/kappa; also called antibody No. (6)
Turning to B2, in experiment [1], the “KD (monkey)/KD (human)” value was determined as 1.72. In experiment [2], this molecule displayed a Kd of 5.42 nM, a Response of 0.354, a koff of 0.000451 s⁻¹ and a kon of 83100 M⁻¹ s⁻¹. In experiment [3], this molecule gave a Kd of 9.33 nM, a Response of 0.335, a koff of 0.000512 s⁻¹ and a kon of 54900 M⁻¹ s⁻¹. Also, in the experiment with human Trop2 on cells, the EC50 (as a rule, the midpoint of the concentration-response curve) stood at 0.653 nM; the “Maximum (MFI)” value is 6040 MFI; the Top % came out at 93.2%.

B3: PR001143 (antibody, human IgG1, kappa, V domains shown)
VH: QVQLVESGGGVVQPGRSLRVSCAASGFIFSTYGMHWVRQAPGKGLEWVAVIWYDGSNEDYVDSVKGRFTISRDNSKNTLYLQMNSLRGEDTAVYYCARGGYNSGWWAFDVWGQGTLVTVSS
VL: DIQMTQSPSSLSASVGDRVTITCRASQGISHFLAWYQQKPGKVPKLLIYAASTLQSGVPSRFSGSGSGTDFTLTISSLQPEDVATYYCQKFNSAPLTFGGGTKVEIKR
notes: fully human IgG1/kappa; also called antibody No. (10)
For the molecule B3, the “KD (monkey)/KD (human)” value in experiment [1] stood at 1.78. Further, in experiment [2], the Kd worked out at 6.94 nM, the Response worked out at 0.335, the koff is 0.000556 s⁻¹ and the kon worked out at 80100 M⁻¹ s⁻¹. Moreover, in experiment [3], the Kd came to 12.4 nM, the Response came out at 0.308, the koff came out at 0.000645 s⁻¹ and the kon worked out at 52100 M⁻¹ s⁻¹. Further, in the experiment with human Trop2 on cells, the EC50 was determined as 0.795 nM, the “Maximum (MFI)” value was 6300 MFI and the Top % was found to be 97.2%.

B4: PR001153 (antibody, human IgG1, kappa, V domains shown)
VH: QVQLQESGPGLVKPSGTLSLTCAVSGGSISSSNWWSWVRQPPGKGLEWIGEIYHDGSTDYNPSLKSRVIISVDKSKNQFSLKVRSVTAADTAVYYCARDNWGFDYWGQGTLVTVSS
VL: EIVLTQFPGTLSLSPGERATLSCRSSQSVSSSYLAWYQQKPGQAPRLLISGASSRATGIPDRFSGSGSGTDFTLTISRLEPEDFAVYYCQQYGSSPRTFGQGTKVEIKR
notes: fully human IgG1/kappa; also called antibody No. (16)
Turning to B4, in experiment [1], the “KD (monkey)/KD (human)” value came out at 5.61. In experiment [2], the Kd came to 0.0323 nM, the Response is 0.381, the “fold lower KD than the reference antibody Tab (hRS7)” value was roughly 10 fold and the koff was found to be 2.53e-06 s⁻¹. Also, the kon in experiment [2] was found to be 78600 M⁻¹ s⁻¹. In experiment [3], this molecule yielded a Kd of 0.181 nM, a Response of 0.337, a koff of 1.07e-05 s⁻¹ and a kon of 59300 M⁻¹ s⁻¹. In the experiment with human Trop2 on cells, the EC50 stood at 2.47 nM, the “Maximum (MFI)” value was found to be 6940 MFI and the Top % is 107%.

B5: PR001147 (antibody, human IgG1, kappa, V domains shown)
VH: QVNLVESGGGVVQPGRSLKLSCAASGFTFSSYGMHWVRQAPGKGLEWVAFIWSDGTNRYYPESVKGRFTISRDDSRNTVSLQMNSLRPEDTAVYYCARDGWGTYGEYFQHWGQGTLVTVSS
VL: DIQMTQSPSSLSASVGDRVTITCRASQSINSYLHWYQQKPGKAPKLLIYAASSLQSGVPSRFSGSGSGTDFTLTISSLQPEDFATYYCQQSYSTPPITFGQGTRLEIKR
notes: fully human IgG1/kappa; also called antibody No. (12)
Take B5: in experiment [1], the “KD (monkey)/KD (human)” value turned out to be 3.86. In experiment [2], this molecule showed a Kd of 0.498 nM, a Response of 0.349, a koff of 4.23e-05 s⁻¹ and a kon of 85000 M⁻¹ s⁻¹. In experiment [3], this molecule returned a Kd of 1.92 nM, a Response of 0.341, a koff of 0.000117 s⁻¹ and a kon of 60900 M⁻¹ s⁻¹. Besides, in the experiment with human Trop2 on cells, the EC50 was determined as 1.31 nM, the “Maximum (MFI)” value worked out at 7420 MFI and the Top % stood at 115%.

B6: PR001160 (antibody, human IgG1, kappa, V domains shown)
VH: QVQLVESGGGVVQPGRSLRLSCEASGFTFSHYGMHWVRQAPGKGLEWVAVIWYDGIMKNYIESVKGRFTISRDNSKNTLYLQMNRLRAEDTAVYYCARDGGFGELNYYGLDVWGQGTTVTVSS
VL: DIQLTQSPSFLSASVGDRVTITCRASQGISSYLGWYQQKPGKAPKLLIYVASTLQSGVPSRFSGSGSGTEFTLTISSLQPEDFATYYCQQLNSYPYTFGQGTKLEIKR
notes: fully human IgG1/kappa; also called antibody No. (22)
With B6, the “KD (monkey)/KD (human)” value in experiment [1] stood at 2.22. In experiment [2], this molecule yielded a Kd of 0.819 nM, a Response of 0.39, a koff of 9.48e-05 s⁻¹ and a kon of 116000 M⁻¹ s⁻¹. In experiment [3], this molecule showed a Kd of 1.82 nM, a Response of 0.36, a koff of 0.000135 s⁻¹ and a kon of 74300 M⁻¹ s⁻¹. In the experiment with human Trop2 on cells, a half-maximal effect (EC50) was put at 1.22 nM, the “Maximum (MFI)” value stood at 6710 MFI and the Top % amounted to 104%.

B7: PR001164 (antibody, human IgG1, kappa, V domains shown)
VH: QVQLQQSGPGLVKPSQTLSLTCAISGDSVSSTSAVWNWIRQSPSRGLEWLGRTCYRSKWYNDYAVSVKSRITITPDTSKNQFSLRLNPVTPEDTAVYYCARGDFRFDSWGQGTLVTVSS
VL: DIQLTQSPSFLSASVGDRVTITCRASQGISSYLAWYQQKPGKAPKLLIYAASTLQSGVPSRFSGSGSGTEFTLTISSLQPEDFATYYCQQVKIYPLTFGGGTKVEIKR
notes: fully human IgG1/kappa; also called antibody No. (25)
Turning to B7, the “KD (monkey)/KD (human)” value in experiment [1] worked out at 0.85. Further, in experiment [2], binding was put at a Kd of 2.41 nM, the Response is 0.194, the koff was 0.000262 s⁻¹ and the kon amounted to 109000 M⁻¹ s⁻¹. For the same molecule, in experiment [3], binding was put at a Kd of 2.04 nM, the Response is 0.173, the dissociation rate constant (koff) is 0.000162 s⁻¹ and the kon was determined as 79400 M⁻¹ s⁻¹. Further, in the experiment with human Trop2 on cells, the midpoint of the response, the EC50, lay at 2.4 nM; the “Maximum (MFI)” value came to 8950 MFI; the Top % was found to be 138%.

B8: PR001163 (antibody, human IgG1, kappa, V domains shown)
VH: QVQLVESGGDVVQPGRSLRLSCEASGFTFSHYGMHWVRQAPGKGLEWVAVVWYDGIKKYYVESVKGRFTISRDNSKNTLYLQMNRLRAEDTAVYYCARDGGFGELNYYGLDVWGQGTTVTVSS
VL: DIQLTQSPSFLSASVGDRVTITCRASQGISSYLGWYQQKPGKAPKLLIYVASTLQSGVPSRFSGSGSGTEFTLTISSLQPEDFATYYCQQLNSYPYTFGQGTKLEIKR
notes: fully human IgG1/kappa; also called antibody No. (24)
For the molecule B8, the “KD (monkey)/KD (human)” value in experiment [1] was determined as 2.48. In experiment [2], this molecule registered a Kd of 0.79 nM, a Response of 0.396, a koff of 8.34e-05 s⁻¹ and a kon of 106000 M⁻¹ s⁻¹. For the same molecule, in experiment [3], the affinity, expressed as Kd, was 1.96 nM; the Response was 0.372; the koff is 0.000134 s⁻¹; the kon amounted to 68400 M⁻¹ s⁻¹. For the same molecule, in the experiment with human Trop2 on cells, a half-maximal effect (EC50) was put at 0.496 nM, the “Maximum (MFI)” value turned out to be 5990 MFI and the Top % was 92.4%.

The values are drawn from patent US20240067748A1 (NONA BIOSCIENCES SUZHOU, published 2024).
